Measured values as given in article PMC12326332.

Legend:
Test in all cases: SPR; Biacore T200, CM-5 chip with coupled anti-GST nanobody; GST-tagged RNF38 LP variants captured, UBE2D2^S22R or UBE2D2^S22R,C85K–Ub as analyte; 25°C; 25 mM Tris–HCl pH 7.6, 150 mM NaCl, 1 mM DTT, 0.005% Tween-20; one-site binding model; two technical replicates
[1] = biological target: GST-RNF38^RING-R454A (UniProt Q9H0F5)
[2] = biological target: GST-RNF38^RING-R454C (UniProt Q9H0F5)
[3] = biological target: GST-RNF38^RING-R454D (UniProt Q9H0F5)
[4] = biological target: GST-RNF38^RING-R454E (UniProt Q9H0F5)
[5] = biological target: GST-RNF38^RING-R454F (UniProt Q9H0F5)
[6] = biological target: GST-RNF38^RING-R454G (UniProt Q9H0F5)
[7] = biological target: GST-RNF38^RING-R454H (UniProt Q9H0F5)
[8] = biological target: GST-RNF38^RING-R454I (UniProt Q9H0F5)
[9] = biological target: GST-RNF38^RING-R454K (UniProt Q9H0F5)
[10] = biological target: GST-RNF38^RING-R454L (UniProt Q9H0F5)
[11] = biological target: GST-RNF38^RING-R454M (UniProt Q9H0F5)
[12] = biological target: GST-RNF38^RING-R454N (UniProt Q9H0F5)
[13] = biological target: GST-RNF38^RING-R454P (UniProt Q9H0F5)
[14] = biological target: GST-RNF38^RING-R454Q (UniProt Q9H0F5)
[15] = biological target: GST-RNF38^RING-R454S (UniProt Q9H0F5)
[16] = biological target: GST-RNF38^RING-R454T (UniProt Q9H0F5)
[17] = biological target: GST-RNF38^RING-R454V (UniProt Q9H0F5)
[18] = biological target: GST-RNF38^RING-R454W (UniProt Q9H0F5)
[19] = biological target: GST-RNF38^RING-R454Y (UniProt Q9H0F5)
[20] = biological target: GST-RNF38^RING-WT (UniProt Q9H0F5)

Substance	Kd [1] [µM]	Kd [2] [µM]	Kd [3] [µM]	Kd [4] [µM]	Kd [5] [µM]	Kd [6] [µM]	Kd [7] [µM]	Kd [8] [µM]	Kd [9] [µM]	Kd [10] [µM]	Kd [11] [µM]	Kd [12] [µM]	Kd [13] [µM]	Kd [14] [µM]	Kd [15] [µM]	Kd [16] [µM]	Kd [17] [µM]	Kd [18] [µM]	Kd [19] [µM]	Kd [20] [µM]
UBE2D2^S22R (from UniProt P62837 1-147) (enzyme)	167	209	270	755	173	393	200	111	132	166	139	623	245	101	153	160	173	63.1	138	105
UBE2D2^S22R,C85K–Ub (from UniProt P62837 2-147; P0CG48 1-76) (complex)	60.4	56.5	69.8	111	45.4	91	55.7	42	30.2	46.7	31.2	106	82.7	29.2	59.5	63	53.9	24.3	23.8	2.5
